Where no end group is shown, it is not given here.
B1: Phage-3460 (peptide)
peptide: NAIMCRPAWMCSGF
notes: also called Peptide-180 library clone; not shown: pIII filament protein of the bacteriophage
B2: Phage-3487 (peptide)
peptide: PVAVCKPAWMCEGF
notes: tested as crude clonal phage supernatant
B3: Phage-3484 (peptide)
peptide: AERMCVPSWMCQGL
notes: as for B2
B4: Phage-3480 (peptide)
peptide: EFIKCEPKWMCQGF
notes: as for B2
B5: Phage-3485 (peptide)
peptide: EAIRCVPVWMCQGF
notes: as for B2
B6: Phage-3493 (peptide)
peptide: YPTWCVPTWMCTGM
modifications: cysteine pairing not given here; also: fused to pIII of bacteriophage, pIII and linker not given here
notes: Peptide-180 library clone, tested as clonal phage supernatant with the peptide fused to pIII of the bacteriophage
B7: Phage-3494 (peptide)
peptide: DYMMCSPDWMCKGF
modifications: cysteine pairing not given here; also: fused to pIII of bacteriophage, pIII and linker not given here
notes: as for B6
B8: Phage-3488 (peptide)
peptide: ITQMCKPAWMCVGL
notes: as for B2
B9: Phage-3486 (peptide)
peptide: YSQMCKPAWMCNGF
notes: as for B2
B10: Phage-3477 (peptide)
peptide: VWKTCVPEWMCVGY
notes: as for B2
B11: Phage-3491 (peptide)
peptide: LEMVCKPEWMCLGL
modifications: cysteine pairing not given here; also: fused to pIII of bacteriophage, pIII and linker not given here
notes: as for B6
B12: Phage-3482 (peptide)
peptide: YFKHCVPQWMCEGF
notes: as for B2
B13: Phage-3483 (peptide)
peptide: ITPACVPEWMCLGL
notes: as for B2
B14: Phage-3497 (peptide)
peptide: VDRICKPDWMCAGF
modifications: cysteine pairing not given here; also: fused to pIII of bacteriophage, pIII and linker not given here
notes: as for B6
B15: Phage-3496 (peptide)
peptide: QDMVCRPAWMCTGF
modifications: cysteine pairing not given here; also: fused to pIII of bacteriophage, pIII and linker not given here
notes: as for B6
B16: Phage-3479 (peptide)
peptide: MDARCVPSWMCIGV
notes: as for B2
B17: Phage-3461 (peptide)
peptide: TELLCTPRWMCEGF
notes: as for B1
B18: Phage-3495 (peptide)
peptide: SMAWCVPNWMCTGF
modifications: cysteine pairing not given here; also: fused to pIII of bacteriophage, pIII and linker not given here
notes: as for B6
B19: Phage-3498 (peptide)
peptide: TVHYCTPSWMCTGF
modifications: cysteine pairing not given here; also: fused to pIII of bacteriophage, pIII and linker not given here
notes: as for B6
B20: Phage-3481 (peptide)
peptide: DTIACRPEWMCTGF
notes: as for B2
B21: Phage-3492 (peptide)
peptide: DILRCVPEWMCTGF
modifications: cysteine pairing not given here; also: fused to pIII of bacteriophage, pIII and linker not given here
notes: as for B6
B22: Phage-3490 (peptide)
peptide: VNMICKPAWMCKGF
modifications: cysteine pairing not given here; also: fused to pIII of bacteriophage, pIII and linker not given here
notes: as for B6
B23: Phage-3462 (peptide)
peptide: VLRSCVPEWMCSGF
notes: as for B1
B24: Phage-3478 (peptide)
peptide: SDKFCVPEWMCEWI
notes: as for B2
B25: Phage-3489 (peptide)
peptide: LDRMCVPLWMCEGF
notes: as for B2
B26: Phage-3476 (peptide)
peptide: VSPMCRPAWMCEGL
notes: as for B2

Assays:
[1] = target: T1, PSMA Fab (006 PSMA Fab) (Fab biotinylated for capture on neutravidin plates (site not given)); assay: clonal phage ELISA; biotinylated PSMA Fab on neutravidin plate, blocking buffer alone; anti-M13-HRP detection;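 also: clonal phage applied as crude supernatants to wells preincubated with blocking buffer, binding read by ELISA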
T1 construct: also called Anti-PSMA Fab; anti-PSMA Fab

[2] = target: T1, PSMA Fab (006 PSMA Fab); assay: clonal phage ELISA; biotinylated PSMA Fab on neutravidin plate, wells pre-incubated with PSMA antigen as competitor; anti-M13-HRP detection
Protocol: (§1) Clonal phage were harvested as crude supernatants and screened via standard ELISAs. […] Prior to the addition of clonal phage. wells were incubated with blocking buffer and PSMA antigen or blocking buffer alone. Without washing or aspirating, clonal phage supernatants were then added to the wells and incubated for a short time. Wells were then washed followed by detection of bound phage using a horse radish conjugated anti-M13 antibody.

[3] = target: T2, PSMA Fab (biotinylated (site not stated)); assay: clonal phage ELISA on PSMA Fab pre-incubated with PSMA antigen as competitor
T2 construct: Biotinylated PSMA Fab captured on neutravidin coated plates in the phage ELISA; also called Anti-PSMA Fab; 006 PSMA Fab

[4] = target: T2, PSMA Fab; assay: clonal phage ELISA, biotinylated PSMA Fab on neutravidin plate, anti-M13 HRP detection;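 also: crude clonal phage supernatants added to wells pretreated with blocking buffer either with or without PSMA antigen, bound phage read after washing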
Protocol: as §1

[5] = target: T3, Anti-PSMA Fab; assay: clonal phage ELISA on captured PSMA Fab pre-incubated with PSMA antigen as competitor, anti-M13 HRP detection;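 also: crude clonal phage supernatants tested by ELISA, wells first treated with blocking buffer plus PSMA antigen, bound phage read out via HRP-linked anti-M13 antibody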
T3 construct: Biotinylated and captured on neutravidin coated plates in the phage ELISA; also called 006 PSMA Fab
Protocol: as §1

[6] = target: T3, Anti-PSMA Fab; assay: clonal phage ELISA on biotinylated PSMA Fab captured on neutravidin plate, anti-M13 HRP detection, blocking buffer alone
Protocol: as §1

| Binder | Phage binding ELISA signal, Anti-PSMA Fab with PSMA antigen [3] | Phage binding ELISA signal, Anti-PSMA Fab [4] | Phage binding ELISA signal, Anti-PSMA Fab with PSMA antigen [5] | Phage binding ELISA signal, Anti-PSMA Fab [6] | also measured |
| --- | --- | --- | --- | --- | --- |
| B1 |  |  |  |  | Phage binding ELISA signal, Anti-PSMA Fab [1]: 1.74; Phage binding ELISA signal, Anti-PSMA Fab in presence of PSMA antigen [2]: 0.0847 |
| B2 | 0.0982 | 1.72 |  |  |  |
| B3 | 0.0943 | 1.72 |  |  |  |
| B4 | 0.0826 | 1.72 |  |  |  |
| B5 | 0.0989 | 1.72 |  |  |  |
| B6 |  |  | 0.0716 | 1.71 |  |
| B7 |  |  | 0.0722 | 1.7 |  |
| B8 | 0.123 | 1.72 |  |  |  |
| B9 | 0.101 | 1.72 |  |  |  |
| B10 | 0.112 | 1.73 |  |  |  |
| B11 |  |  | 0.0996 | 1.71 |  |
| B12 | 0.146 | 1.72 |  |  |  |
| B13 | 0.0774 | 1.72 |  |  |  |
| B14 |  |  | 0.091 | 1.7 |  |
| B15 |  |  | 0.0848 | 1.7 |  |
| B16 | 0.48 | 1.72 |  |  |  |
| B17 |  |  |  |  | Phage binding ELISA signal, Anti-PSMA Fab [1]: 1.74; Phage binding ELISA signal, Anti-PSMA Fab in presence of PSMA antigen [2]: 0.163 |
| B18 |  |  | 0.0897 | 1.7 |  |
| B19 |  |  | 0.0866 | 1.7 |  |
| B20 | 0.0607 | 1.72 |  |  |  |
| B21 |  |  | 0.0911 | 1.71 |  |
| B22 |  |  | 0.0872 | 1.71 |  |
| B23 |  |  |  |  | Phage binding ELISA signal, Anti-PSMA Fab [1]: 1.74; Phage binding ELISA signal, Anti-PSMA Fab in presence of PSMA antigen [2]: 0.075 |
| B24 | 0.0588 | 1.72 |  |  |  |
| B25 | 0.0991 | 1.71 |  |  |  |
| B26 | 0.0909 | 1.73 |  |  |  |
